Measured values: patent publication US20240360223A1 (DRAGONFLY THERAPEUTICS, published 2024)
“And” between values parts separate entries of the source, which are not always exact repeats. Equal entries are not always repeated.

Legend:
[1] = target: T1, BCMA expressed on C6 cells (UniProt Q02223 1-184, limits assumed); assay: flow cytometry on BCMA-C6 cells, anti-human Fc-g-PE
T1 construct: whole, on cells; also called BCMA-C6; isogenic BCMA+ cells
T1 sequence (looked up): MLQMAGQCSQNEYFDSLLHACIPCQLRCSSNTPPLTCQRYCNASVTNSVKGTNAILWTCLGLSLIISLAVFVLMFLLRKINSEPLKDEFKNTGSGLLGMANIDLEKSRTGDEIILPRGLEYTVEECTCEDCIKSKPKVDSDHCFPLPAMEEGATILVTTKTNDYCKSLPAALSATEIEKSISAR
Excerpt: A mAb with known BCMA specificity (EM901) was used as a positive control for BCMA detection.

[2] = target: T2, human CD16b (human, UniProt O75015 17-200, limits assumed); assay: SPR, recombinant receptor; reference trastuzumab
T2 construct: also called FcγRIIIb

[3] = target: T3, human CD16a V158 (human, UniProt P08637 17-208); assay: SPR, recombinant receptor; reference trastuzumab
T3 construct: also called hCD16aV; hCD16a V158

[4] = target: T4, human CD64 (human, UniProt P12314 16-288, limits assumed); assay: SPR, recombinant receptor; reference trastuzumab
T4 construct: also called FcγRI

[5] = target: human CD16a F158 (human, UniProt P08637 17-208); assay: SPR, recombinant receptor; reference trastuzumab
[6] = target: T5, human CD32a H131 (human, UniProt P12318 36-218, limits assumed); assay: SPR, recombinant receptor; reference trastuzumab
T5 sequence (looked up): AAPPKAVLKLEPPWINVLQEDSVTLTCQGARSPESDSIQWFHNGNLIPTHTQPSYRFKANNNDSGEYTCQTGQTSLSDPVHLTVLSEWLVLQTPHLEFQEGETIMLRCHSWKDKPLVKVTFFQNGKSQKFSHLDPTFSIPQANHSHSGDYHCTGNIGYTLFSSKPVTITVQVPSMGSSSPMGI

[7] = target: T6, human CD32a R131 (human, UniProt P12318 36-218, limits assumed); assay: SPR, recombinant receptor; reference trastuzumab
T6 construct: also called FcγRIIa R131
T6 sequence (looked up): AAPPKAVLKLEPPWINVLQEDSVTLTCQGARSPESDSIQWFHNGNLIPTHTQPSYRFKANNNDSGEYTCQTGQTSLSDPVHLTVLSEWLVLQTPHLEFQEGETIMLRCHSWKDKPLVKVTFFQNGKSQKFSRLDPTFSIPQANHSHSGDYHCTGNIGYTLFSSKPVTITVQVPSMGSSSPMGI

[8] = target: T7, cynomolgus CD16 (cynomolgus, UniProt Q8SPW2 17-208, limits assumed); assay: SPR, recombinant receptor; reference trastuzumab
T7 construct: also called Cyno CD16; cynomolgus FcγRIII

[9] = target: T8, human CD32b (human, UniProt P31994 46-217, limits assumed); assay: SPR, recombinant receptor; reference trastuzumab
T8 construct: also called FcγRIIb
T8 sequence (looked up): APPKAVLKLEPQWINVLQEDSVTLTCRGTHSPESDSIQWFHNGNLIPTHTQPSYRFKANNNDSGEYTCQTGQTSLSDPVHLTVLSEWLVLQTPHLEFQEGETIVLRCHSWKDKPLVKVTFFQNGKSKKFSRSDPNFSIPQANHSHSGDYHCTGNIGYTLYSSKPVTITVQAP

[10] = target: T9, cynomolgus NKG2D (recombinant mFc-tagged dimer) (cynomolgus, UniProt P61252 78-216); assay: SPR
T9 construct: also called cyno NKG2D
T9 sequence (looked up): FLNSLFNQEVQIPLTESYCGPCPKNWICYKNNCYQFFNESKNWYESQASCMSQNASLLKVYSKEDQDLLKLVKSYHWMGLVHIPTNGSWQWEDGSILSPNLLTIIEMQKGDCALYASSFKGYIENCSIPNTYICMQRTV

[11] = target: human FcRn (human, UniProt P55899 24-297; P61769 21-119); assay: SPR, pH 6.0, steady state, average; pH 6.0; average of four replicates
[12] = target: T10, human BAFF-R expressed on cells (human, UniProt Q96RJ3 1-184); assay: flow cytometry, Raji cells
T10 construct: Cell surface BAFF-R, endogenous on B cell lines and primary B cells or overexpressed on isogenic CHO cells; also called hBAFF-R; hBAFF-R-CHO

[13] = target: T7, cynomolgus CD16; assay: SPR, kinetic fit; first replicate, kinetic fit
[14] = target: T3, human CD16a V158; assay: SPR, kinetic fit
[15] = target: T11, cynomolgus FcRn (cynomolgus, UniProt Q8SPV9 24-297; Q8SPW0 21-119); assay: SPR, pH 6.0, summary table
T11 construct: also called Cyno FcRn

[16] = target: T12, human NKG2D (recombinant mFc-tagged dimer) (human, UniProt P26718 78-216); assay: SPR
T12 construct: also called hNKG2D
T12 sequence (looked up): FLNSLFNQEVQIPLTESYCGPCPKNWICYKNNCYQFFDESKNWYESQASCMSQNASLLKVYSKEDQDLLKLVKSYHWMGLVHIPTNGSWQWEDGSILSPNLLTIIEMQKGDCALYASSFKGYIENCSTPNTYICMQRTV
Excerpt: NKG2D is a native dimer, therefore recombinant mFc-tagged NKG2D dimer was used for this experiment. Two different fits were utilized to obtain the equilibrium affinity data: steady state affinity fit and kinetic fit.

[17] = target: T12, human NKG2D (recombinant mFc-tagged …); assay: SPR, steady state, control
[18] = target: T13, recombinant human TACI (human, UniProt O14836 2-166, limits assumed); assay: SPR, immobilized AB1424 F3', analyte 500 nM TACI
T13 sequence (looked up): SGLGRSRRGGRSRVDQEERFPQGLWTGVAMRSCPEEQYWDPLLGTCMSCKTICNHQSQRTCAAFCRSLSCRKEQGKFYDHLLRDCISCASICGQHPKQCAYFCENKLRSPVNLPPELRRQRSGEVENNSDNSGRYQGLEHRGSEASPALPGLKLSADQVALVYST

[19] = target: T10, human BAFF-R expressed on cells; assay: cell-based or functional assay

T3 sequence (P08637 17-208 F176V limits assumed): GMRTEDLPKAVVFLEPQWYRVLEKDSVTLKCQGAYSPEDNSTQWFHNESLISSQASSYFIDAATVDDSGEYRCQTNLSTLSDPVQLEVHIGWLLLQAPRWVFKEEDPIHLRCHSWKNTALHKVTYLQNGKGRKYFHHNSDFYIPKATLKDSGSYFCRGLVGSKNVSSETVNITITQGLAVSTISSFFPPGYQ
T7 sequence (Q8SPW2 17-208 limits assumed): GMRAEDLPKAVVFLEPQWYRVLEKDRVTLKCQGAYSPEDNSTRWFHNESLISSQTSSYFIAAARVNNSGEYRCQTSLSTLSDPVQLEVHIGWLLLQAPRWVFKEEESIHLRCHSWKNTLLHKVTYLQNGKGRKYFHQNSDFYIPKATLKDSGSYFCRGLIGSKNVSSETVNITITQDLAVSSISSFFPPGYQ
T2 sequence (O75015 17-200 limits assumed): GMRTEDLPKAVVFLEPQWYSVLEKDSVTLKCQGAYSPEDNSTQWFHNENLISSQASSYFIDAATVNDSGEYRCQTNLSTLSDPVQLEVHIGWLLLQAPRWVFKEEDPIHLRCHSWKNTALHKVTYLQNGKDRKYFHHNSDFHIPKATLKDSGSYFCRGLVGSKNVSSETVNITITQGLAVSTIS
human CD16a F158, sequence (P08637 17-208 limits assumed): as the sequence (P08637 17-208 F176V limits assumed) above, with V160F counted along it
T11 sequence (Q8SPV9 24-297 limits assumed, chain 1 of 2): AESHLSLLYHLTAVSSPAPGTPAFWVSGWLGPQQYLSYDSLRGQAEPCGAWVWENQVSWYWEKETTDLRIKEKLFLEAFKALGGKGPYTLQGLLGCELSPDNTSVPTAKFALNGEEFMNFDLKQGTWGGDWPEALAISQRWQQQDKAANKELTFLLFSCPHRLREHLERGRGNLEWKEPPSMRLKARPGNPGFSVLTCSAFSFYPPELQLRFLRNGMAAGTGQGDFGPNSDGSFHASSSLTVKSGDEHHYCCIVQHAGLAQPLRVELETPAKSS
T11 sequence (Q8SPW0 21-119 limits assumed, chain 2 of 2): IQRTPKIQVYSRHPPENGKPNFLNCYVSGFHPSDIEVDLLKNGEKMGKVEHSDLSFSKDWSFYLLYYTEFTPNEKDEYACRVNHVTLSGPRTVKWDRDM
human FcRn, sequence (P55899 24-297 limits assumed, chain 1 of 2): as the sequence (Q8SPV9 24-297 limits assumed, chain 1 of 2) above, with D39N, Q44E, S99G, G189S, N190S, M217L, T269S counted along it
human FcRn, sequence (P61769 21-119 limits assumed, chain 2 of 2): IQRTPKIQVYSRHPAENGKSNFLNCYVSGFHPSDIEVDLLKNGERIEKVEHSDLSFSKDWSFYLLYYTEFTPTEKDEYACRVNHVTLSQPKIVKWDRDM
T4 sequence (P12314 16-288 limits assumed): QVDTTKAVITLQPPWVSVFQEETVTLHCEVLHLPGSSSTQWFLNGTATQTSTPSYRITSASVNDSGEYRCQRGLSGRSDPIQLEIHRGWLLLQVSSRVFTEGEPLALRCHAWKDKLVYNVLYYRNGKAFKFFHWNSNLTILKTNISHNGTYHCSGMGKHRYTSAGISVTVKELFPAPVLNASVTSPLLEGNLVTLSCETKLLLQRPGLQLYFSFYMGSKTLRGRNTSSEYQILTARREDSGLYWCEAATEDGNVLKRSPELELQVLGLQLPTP

B1: AB1424/AB1612 F3′ TriNKET (bispecific antibody, human IgG1, kappa)
chain: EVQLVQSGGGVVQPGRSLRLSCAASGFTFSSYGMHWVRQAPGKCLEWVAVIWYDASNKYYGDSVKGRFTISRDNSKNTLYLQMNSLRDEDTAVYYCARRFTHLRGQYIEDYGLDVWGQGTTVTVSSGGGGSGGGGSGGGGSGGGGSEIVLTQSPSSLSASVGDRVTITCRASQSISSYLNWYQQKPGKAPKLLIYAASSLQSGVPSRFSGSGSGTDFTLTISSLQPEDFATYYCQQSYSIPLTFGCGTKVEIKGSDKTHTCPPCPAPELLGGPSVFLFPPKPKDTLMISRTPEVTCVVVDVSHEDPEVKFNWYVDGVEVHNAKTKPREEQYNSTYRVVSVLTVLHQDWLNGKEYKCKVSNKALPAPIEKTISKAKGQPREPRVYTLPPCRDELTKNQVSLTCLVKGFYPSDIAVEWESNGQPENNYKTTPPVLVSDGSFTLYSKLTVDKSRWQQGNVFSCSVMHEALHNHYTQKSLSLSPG
heavy: EVQLVESGGGLVKPGGSLRLSCAASGFTFSSYSMNWVRQAPGKGLEWVSSISSSSSYIYYADSVKGRFTISRDNAKNSLYLQMNSLRAEDTAVYYCARGAPIGAAAGWFDPWGQGTLVTVSSASTKGPSVFPLAPSSKSTSGGTAALGCLVKDYFPEPVTVSWNSGALTSGVHTFPAVLQSSGLYSLSSVVTVPSSSLGTQTYICNVNHKPSNTKVDKKVEPKSCDKTHTCPPCPAPELLGGPSVFLFPPKPKDTLMISRTPEVTCVVVDVSHEDPEVKFNWYVDGVEVHNAKTKPREEQYNSTYRVVSVLTVLHQDWLNGKEYKCKVSNKALPAPIEKTISKAKGQPREPQVCTLPPSRDELTENQVSLTCLVKGFYPSDIAVEWESNGQPENNYKTTPPVLDSDGSFFLYSWLTVDKSRWQQGNVFSCSVMHEALHNHYTQKSLSLSPG
light: DIQMTQSPSSVSASVGDRVTITCRASQGISSWLAWYQQKPGKAPKLLIYAASSLQSGVPSRFSGSGSGTDFTLTISSLQPEDFATYYCQQGVSFPRTFGGGTKVEIKRTVAAPSVFIFPPSDEQLKSGTASVVCLLNNFYPREAKVQWKVDNALQSGNSQESVTEQDSKDSTYSLSSTLTLSKADYEKHKVYACEVTHQGLSSPVTKSFNRGEC
notes: Chain S: anti-BAFF-R scFv-CH2-CH3; chain H: anti-NKG2D VH-CH1-CH2-CH3; chain L: anti-NKG2D VL-CL; also called AB1612-002
[1]
  binding result: no binding (tested: about 50 nM)
[2]
  fold difference in binding against trastuzumab: < 3 fold
[3]
  fold difference in binding against trastuzumab: < 3 fold
[4]
  fold difference in binding against trastuzumab: < 3 fold
[5]
  fold difference in binding against trastuzumab: < 3 fold
[6]
  fold difference in binding against trastuzumab: < 1.2 fold
[7]
  fold difference in binding against trastuzumab: < 1.2 fold
[8]
  fold difference in binding against trastuzumab: < 3 fold
[9]
  fold difference in binding against trastuzumab: < 1.2 fold
[10]
  koff: 0.11 s⁻¹ and 0.1 s⁻¹
  kon: 210000 M⁻¹ s⁻¹ and 200000 M⁻¹ s⁻¹
[11]
  Kd: 1000 nM
[12]
  EC50: 0.18 nM
  Max FOB: 10 fold over background
[13]
  Kd: 261 nM
[14]
  Kd: 131 nM (2×) and 134 nM and 122 nM
[15]
  Kd: 1000 nM
[16]
  koff: 0.11 s⁻¹
  kon: 240000 M⁻¹ s⁻¹ and 230000 M⁻¹ s⁻¹
[17]
  Kd: 544 nM
[18]
  binding result: no binding (tested: 500 nM)
[19]
  lysis of BJAB target cells by rested primary human NK cells, EC50: 0.06 nM
  specific lysis of BAFF-R+ target cells by KHYG-1-CD16V effector cells, EC50: 0.05 nM
